Measurements from patent US20250388664A1 (BIOARCTIC, published 2025).
Substitutions are numbered along the chain they refer to. Read-outs that look alike come from different tables or passages of the source. Values belong to the binder of their own block, whether it stands above or below them.

What was measured:
[1] = target: T1, truncated hTfR1 of SEQ ID NO:122 (human, UniProt P02786 122-760); experiment: SPR, FLAG-captured TfR1, bispecific injected, 1:1 fit
T1 construct: also called human TfR1; Human TfR1
Experimental: (§1) Binding of the purified bispecific binding molecules produced in Example 47 to human and cynomolgus TfR1 was evaluated using SPR on a Biacore 8K instrument (Cytiva). […] The interaction was measured using the single cycle kinetics method with a contact time of 120 s at a flow rate of 30 μl/min followed by a dissociation time of 600 s. Regeneration of the surface between cycles was done by injecting 10 mM glycine-HCl, pH 1.7. The binding data was fitted to a 1:1 interaction model. The tested molecules were diluted in HBS-EP+ (Cytiva, #BR100669). Experiments were performed at 25° C.

[2] = target: T2, truncated cTfR1 of SEQ ID NO:123 (cynomolgus monkey, UniProt Q5RDH6 122-760 (Pongo abelii entry)); experiment: as above
T2 construct: also called cynomolgus TfR1
T2 chain: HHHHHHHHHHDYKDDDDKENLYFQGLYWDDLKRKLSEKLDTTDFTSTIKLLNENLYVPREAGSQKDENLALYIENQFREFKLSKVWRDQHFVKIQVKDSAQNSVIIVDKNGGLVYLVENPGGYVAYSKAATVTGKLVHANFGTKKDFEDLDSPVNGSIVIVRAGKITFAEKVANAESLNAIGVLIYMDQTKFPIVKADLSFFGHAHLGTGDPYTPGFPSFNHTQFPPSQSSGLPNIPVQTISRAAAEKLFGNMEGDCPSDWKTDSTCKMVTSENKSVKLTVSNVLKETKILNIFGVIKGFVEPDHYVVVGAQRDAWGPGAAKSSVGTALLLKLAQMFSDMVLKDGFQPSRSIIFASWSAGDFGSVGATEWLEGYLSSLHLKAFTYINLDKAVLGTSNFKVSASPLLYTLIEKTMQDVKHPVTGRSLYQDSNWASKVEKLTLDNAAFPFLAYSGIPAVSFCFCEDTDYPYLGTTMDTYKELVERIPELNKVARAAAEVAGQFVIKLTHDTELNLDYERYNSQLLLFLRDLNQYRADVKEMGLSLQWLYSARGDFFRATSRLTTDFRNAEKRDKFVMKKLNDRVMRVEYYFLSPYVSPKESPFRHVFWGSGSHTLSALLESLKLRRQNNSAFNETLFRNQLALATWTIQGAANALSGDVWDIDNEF
Experimental: as §1

[3] = target: T3, AβpE3-40 monomer (UniProt P05067 674-711, pyroglutamate at position 3 (N-terminal residue)); experiment: cell-based or functional assay
[4] = target: T4, AβpE3-42 protofibrils (UniProt P05067 674-713, pyroglutamate at position 3 (N-terminal residue)); experiment: inhibition ELISA, antigen titrated in solution, AβpE3-40 coat
T4 construct: range 3-42 (Aβ numbering); Soluble aggregates made from AβpE3-42 peptide, purified in the void peak of SEC; also called AβpE3-42 PF
Experimental: (§2) The tested molecules were incubated at a fixed concentration (0.1 μg/ml) with titrating concentrations of the different AβpE3 antigens. After incubation for 45 min at 900 rpm to reach equilibrium, the samples were added to a blocked and washed ELISA plate with an AβpE3-40 coat (0.5 μM). The samples were incubated on the plate for 25 min without shaking followed by washing, incubation with detection antibody, another washing step and finally incubation with alkaline phosphatase substrate.

[5] = target: T3, AβpE3-40 monomer; experiment: as above
Experimental: as §2

[6] = target: T3, AβpE3-40 monomer; experiment: SPR, antibody immobilised, monomer injected, 1:1 fit
Experimental: Single cycle kinetics with the binding molecules immobilized on a CM5 chip was used to measure binding to the AβpE3-40 monomer. For the measurements, 5 μg/ml of analyte binding molecule was immobilized on the chip. […] Regeneration of the surface between cycles was done by injecting 30 μl 3 M MgCl₂ (Cytiva, cat. No. 29234600). The binding data was fitted to a 1:1 interaction model.

[7] = target: T3, AβpE3-40 monomer; experiment: as above; remark: listed apart in the source
[8] = target: T1, truncated hTfR1 of SEQ ID NO:122; experiment: SPR, FLAG-captured TfR1, bispecific injected, 1:1 fit; remark: listed apart in the source
[9] = target: T5, h/m apical domain chimera (SEQ ID NO:112) (human/mouse chimera); experiment: indirect ELISA: plate coated with 1 µg/ml h/m apical domain chimera, mouse IgG titrated, anti-mouse IgG-HRP; x axis printed as 'TfR (ng/ml)'
T5 construct: also called chimeric TfR1 consisting of human apical domain grafted on mouse TfR1 ectodomain
T5 chain: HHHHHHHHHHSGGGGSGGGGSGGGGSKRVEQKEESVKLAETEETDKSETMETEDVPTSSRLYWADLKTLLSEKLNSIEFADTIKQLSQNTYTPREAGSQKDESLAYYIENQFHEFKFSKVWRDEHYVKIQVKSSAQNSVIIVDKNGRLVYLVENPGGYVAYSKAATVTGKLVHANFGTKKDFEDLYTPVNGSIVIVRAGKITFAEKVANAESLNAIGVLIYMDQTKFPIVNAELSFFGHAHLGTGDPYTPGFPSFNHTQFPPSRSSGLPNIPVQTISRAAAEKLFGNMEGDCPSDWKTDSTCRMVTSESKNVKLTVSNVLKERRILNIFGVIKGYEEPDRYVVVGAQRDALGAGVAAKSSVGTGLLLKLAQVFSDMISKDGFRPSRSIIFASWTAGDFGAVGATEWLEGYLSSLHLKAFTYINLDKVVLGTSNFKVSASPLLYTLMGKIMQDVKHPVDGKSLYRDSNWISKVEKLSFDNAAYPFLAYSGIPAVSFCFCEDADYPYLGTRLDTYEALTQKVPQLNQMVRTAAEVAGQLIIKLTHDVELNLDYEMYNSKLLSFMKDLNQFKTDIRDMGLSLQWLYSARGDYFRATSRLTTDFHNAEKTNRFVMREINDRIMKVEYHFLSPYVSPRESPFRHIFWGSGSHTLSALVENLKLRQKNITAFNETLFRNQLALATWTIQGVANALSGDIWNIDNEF
Experimental: Plasma samples serially diluted from a starting dilution of 1/450 or hybridoma supernatants diluted 1/2 were added to the plates (50 μl/well; dilution buffer: PBS with 0.1% BSA and 0.05% TWEEN®-20) and incubated for 2 h at room temperature and then the plates were washed four times. […] After another wash (as above), 50 μl/well TMB substrate (K-Blue® Aqueous, Neogen) was added, and the reaction was stopped after 10-15 min with 50 μl/well of 0.5 M H₂SO₄. The optical density at 450 nm was read using a plate reader (Tecan). The endpoint titers were defined as the dilution above the average of the blank wells (background) plus 3 standard deviations of the blank wells.
(§3) In the ELISA experiment, human, mouse or three different chimeric TfR1 receptors were used to coat ELISA plates (FIGS. 30A-30E). The ELISA protocol was slightly modified as follows from the indirect ELISA described in Example 15. […] The coated plates were then blocked. Dilution series of mouse IgG of the analyzed antibodies were prepared in PBS and incubated on the ELISA plates. Unbound antibodies were then washed off before incubating wells with a HRP-conjugated secondary, anti-mouse-IgG for 1 h. Plates were then washed again before addition of HRP substrate TMB for development and detection of antibody binding to the wells. TMB development was stopped by adding 0.5 M H₂SO₄ to the wells and ELISA responses measured as the OD at 450 nm in an ELISA plate reader.

[10] = target: T6, h/m helical domain chimera (SEQ ID NO:113) (human/mouse chimera, UniProt Q62351 90-763 (mouse entry)); experiment: indirect ELISA: plate coated with 1 µg/ml h/m helical domain chimera, mouse IgG titrated, anti-mouse IgG-HRP; x axis printed as 'TfR (ng/ml)'
T6 construct: also called chimeric TfR1 consisting of human helical domain grafted on mouse TfR1 ectodomain
T6 chain: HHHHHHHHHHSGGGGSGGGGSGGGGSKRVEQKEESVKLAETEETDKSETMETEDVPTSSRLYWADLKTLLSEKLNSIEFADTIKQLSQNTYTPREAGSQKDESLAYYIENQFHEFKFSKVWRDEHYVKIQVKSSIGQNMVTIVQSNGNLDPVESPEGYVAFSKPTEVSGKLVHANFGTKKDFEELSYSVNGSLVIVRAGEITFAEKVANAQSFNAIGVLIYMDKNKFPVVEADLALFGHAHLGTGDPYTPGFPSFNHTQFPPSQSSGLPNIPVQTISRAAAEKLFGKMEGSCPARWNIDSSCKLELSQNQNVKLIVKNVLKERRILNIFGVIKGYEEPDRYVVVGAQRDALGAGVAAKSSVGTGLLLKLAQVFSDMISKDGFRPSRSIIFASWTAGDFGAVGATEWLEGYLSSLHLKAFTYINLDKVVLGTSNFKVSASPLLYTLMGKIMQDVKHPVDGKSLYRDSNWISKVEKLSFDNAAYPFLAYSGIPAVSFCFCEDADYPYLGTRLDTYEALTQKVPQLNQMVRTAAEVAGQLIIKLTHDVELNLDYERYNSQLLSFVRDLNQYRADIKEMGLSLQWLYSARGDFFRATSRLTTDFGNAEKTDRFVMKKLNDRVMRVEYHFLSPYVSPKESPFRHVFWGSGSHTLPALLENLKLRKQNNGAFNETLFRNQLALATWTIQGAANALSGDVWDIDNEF
Experimental: as §3

T3 sequence (P05067 674-711): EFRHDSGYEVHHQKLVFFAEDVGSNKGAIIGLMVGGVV
T4 sequence (P05067 674-713): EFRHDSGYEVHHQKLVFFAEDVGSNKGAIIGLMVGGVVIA

Kd [1]: 190 nM
koff [1]: 0.0042 s⁻¹
kon [1]: 22000 M⁻¹ s⁻¹
Kd [2]: 525 nM
koff [2]: 0.01 s⁻¹
kon [2]: 19000 M⁻¹ s⁻¹
Uptake of AβpE3-40 monomers in THP-1 cells, EC50 [3]: 2 nM
IC50 [4]: 3.1 nM
IC50 [5]: 1.1 nM
Kd [6]: 2.17 nM
koff [6]: 0.00012 s⁻¹
kon [6]: 55800 M⁻¹ s⁻¹
Kd [7]: 2.1 nM
koff [7]: 0.00011 s⁻¹
kon [7]: 54000 M⁻¹ s⁻¹
Kd [8]: 174 nM
koff [8]: 0.0038 s⁻¹
kon [8]: 22000 M⁻¹ s⁻¹
B1: BA001 (bispecific antibody, human IgG1, kappa)
light: EIVLTQSPLSLSVTLGQSASISCRSSQSLLDSNGKTYLHWFILRPGQSPRRLIYLVSILDSGVPDRFSGSGSGTDFTLKISRVEAEDVGVYYCVQGTHFPFTFGSGTKLEIKRTVAAPSVFIFPPSDEQLKSGTASVVCLLNNFYPREAKVQWKVDNALQSGNSQESVTEQDSKDSTYSLSSTLTLSKADYEKHKVYACEVTHQGLSSPVTKSFNRGEC
heavy 1: not shown
heavy 2: EVQLVQSGAEVVKPGASVRLSCKASGYSFTGFTMNWVRQALGQGLEWMGLINPYNGVTTYNQKFKGRLTMTRDMSTRTVYMDLSSLTYEDTAVYYCTREGNWEGVYWGQGTLVTVSSASTKGPSVFPLAPSSKSTSGGTAALGCLVKDYFPEPVTVSWNSGALTSGVHTFPAVLQSSGLYSLSSVVTVPSSSLGTQTYICNVNHKPSNTKVDKKVEPKSCDKTHTCPPCPAPELLGGPSVFLFPPKPKDTLMISRTPEVTCVVVDVSHEDPEVKFNWYVDGVEVHNAKTKPREEQYNSTYRVVSVLTVLHQDWLNGKEYKCAVSNKALPAPIEKTISKAKGQPREPQVYTLPPCRDELTKNQVSLWCLVKGFYPSDIAVEWESNGQPENNYKTTPPVLDSDGSFFLYSKLTVDKSRWQQGNVFSCSVMHEALHNHYTQKSLSLSPGGGGGSGGGGSGGGGSGGGGSDIQMTQSPSSVSASVGDRVTITCKSSQSLLYSTNQKNYLAWYQQKPGKAPKLLIYWASTRESGVPSRFSGSGSGTDFTLTISSLQPEDFATYYCQQYFIYPRTFGCGTKVEIKGGGGSGGGGSGGGGSGGGGSEVQLVQSGAEVKKPGSSVKVSCKASGYIFTDYNMDWVRQAPGQCLEWIGDINPDADTTSYNEKFKGRATLTVDKSTSTAYMELSSLRSEDTAVYYCARGGYSGSSYYHPMDYWGQGTLVTVSS

IC50 [4]: 3.2 nM
IC50 [5]: 0.8 nM
Kd [6]: 2.38 nM
koff [6]: 0.000127 s⁻¹
kon [6]: 53500 M⁻¹ s⁻¹
Kd [8]: 35.6 nM
koff [8]: 0.0031 s⁻¹
kon [8]: 87000 M⁻¹ s⁻¹
B2: BA002 (bispecific antibody, human IgG1, kappa)
light: B1 light
heavy 1: not shown
heavy 2: B1 heavy 2 with Y497A, A654Y

binding result [9]: no binding (tested: about 600 ng/ml)
binding result [10]: no binding (tested: about 600 ng/ml)
B3: 24B4 (antibody, V domains shown)
VH: EVQLQQFGAELVKPGTSVKISCKASGYTFTDYNMDWVKQGHGKGLEWIGDINPNYDTTSYSQKFKGKATLTVDKSSSTAYMELRSLTSEDTAVYYCARSEAGNYYWYFDVWGAGTTVTVSS
VL: DIVMSQSPSSLAVSVGEKVTMSCKSSQSLLYSSNRKNYLAWYRQKPGQSPKLLIYWASTRESGVPDRFTGSGSGTDFTLTISSVKAEDLAVYSCQQYYNYPYTFGGGTKLEIK
notes: also called mouse antibody 24B4; clone 24B4
